Results as given in article PMC10404681, “Intrinsic catalytic properties of histone H3 lysine-9 methyltransferases preserve monomethylation levels under low S-adenosylmethionine” (The Journal of Biological Chemistry, 2023).

Assays:
[1] = substrate: C[S+](CC[C@H](N)C(=O)[O-])C[C@H]1O[C@@H](n2cnc3c(N)ncnc32)[C@H](O)[C@@H]1O; test: Radiometric EZ-tip methyltransferase assay, steady-state kinetics, SUV39H1; format: biochemical; conditions: other: SAM varied 0.1–100 μM, SUV39H1 100 nM, pH 7.9, 30 °C, 20 min, n = 3, SD
Excerpt: (§1) HMT amino acids included in expression plasmids are as follows: EHMT1 = 982 to 1266; EHMT2 = 913 to 1193; SUV39H1 = full length with N-terminal maltose-binding protein; SUV39H2 = 162 to 410.
(§2) Michaelis-Menten saturation curves were generated under steady-state conditions with the non-titrated component concentration being present at ≥5× KM specific to each enzyme. 1 × 10^5 CPM values were provided by [methyl-^3H] SAM in each reaction. Reaction times and enzyme concentrations were optimized for each HMT to ensure substrate turnover remained below 20%. 50 μM H3 peptide was combined with varying SAM concentrations up to 100 μM and either EHMT1 (25 nM), EHMT2 (25 nM), SUV39H1 (100 nM), or SUV39H2 (25 nM) in histone methyltransferase (HMT) activity buffer (50 mM HEPES pH 7.9, 0.5 mM DTT, 0.1 mM AEBSF, 2 mM MgCl2, 0.01% v/v Triton X-100) with a final volume of 20 μl. Enzyme concentrations are calculated for the monomeric form. Reactions were incubated at 30 °C for 20 min before quenching with TFA for a final concentration of 2% v/v TFA. Then, the reactions were cleaned using StageTips (i.e., two Attract SPE disks (Affinisep) in a pipette tip) with 200 μl acidified water (0.5% v/v formic acid) and eluted with 100 μl elution buffer (80% v/v acetonitrile, 0.5% v/v formic acid). The eluates were added to 2 ml of Ultima Gold LSC Cocktail (Sigma-Aldrich) and counted on a scintillation counter (PerkinElmer). All CPM values were corrected for decreased StageTip capacity when peptide concentrations exceeded 10 μM.
(§3) CPM values were converted to rates of product formation (μM/min) and used to generate Michaelis-Menten kinetic constants via GraphPad Prism v9.5.0 via the following equation: Y = Et∗kcat∗X/(KM + X). Variable definitions are as follows: Y = rate of product formation/enzyme velocity; X = substrate concentration; Et = concentration of enzyme in reaction.

[2] = substrate: C[S+](CC[C@H](N)C(=O)[O-])C[C@H]1O[C@@H](n2cnc3c(N)ncnc32)[C@H](O)[C@@H]1O; test: Radiometric EZ-tip methyltransferase assay, steady-state kinetics, EHMT1; format: biochemical, H. sapiens; conditions: other: SAM varied 0.1–100 μM, EHMT1 25 nM, pH 7.9, 30 °C, 20 min, n = 3, SD
Excerpt: as §1, §2, §3

[3] = substrate: C[S+](CC[C@H](N)C(=O)[O-])C[C@H]1O[C@@H](n2cnc3c(N)ncnc32)[C@H](O)[C@@H]1O; test: Radiometric EZ-tip methyltransferase assay, steady-state kinetics, EHMT2; format: biochemical, H. sapiens; conditions: other: SAM varied 0.1–100 μM, EHMT2 25 nM, pH 7.9, 30 °C, 20 min, n = 3, SD
Excerpt: as §1, §2, §3

[4] = substrate: C[S+](CC[C@H](N)C(=O)[O-])C[C@H]1O[C@@H](n2cnc3c(N)ncnc32)[C@H](O)[C@@H]1O; test: Radiometric EZ-tip methyltransferase assay, steady-state kinetics, SUV39H2; format: biochemical, H. sapiens; conditions: other: SAM varied 0.1–100 μM, SUV39H2 25 nM, pH 7.9, 30 °C, 20 min, n = 3, SD
Excerpt: as §1, §2, §3

[5] = fixed H3K9me1 peptide H3(1–17) 50 μM
[6] = fixed H3K9me2 peptide H3(1–17) 50 μM
[7] = fixed H3K9un peptide H3(1–17) 50 μM

B1: SUV39H1 (Homo sapiens) (protein)
chain: MAENLKGCSVCCKSSWNQLQDLCRLAKLSCPALGISKRNLYDFEVEYLCDYKKIREQEYYLVKWRGYPDSESTWEPRQNLKCVRILKQFHKDLERELLRRHHRSKTPRHLDPSLANYLVQKAKQRRALRRWEQELNAKRSHLGRITVENEVDLDGPPRAFVYINEYRVGEGITLNQVAVGCECQDCLWAPTGGCCPGASLHKFAYNDQGQVRLRAGLPIYECNSRCRCGYDCPNRVVQKGIRYDLCIFRTDDGRGWGVRTLEKIRKNSFVMEYVGEIITSEEAERRGQIYDRQGATYLFDLDYVEDVYTVDAAYYGNISHFVNHSCDPNLQVYNVFIDNLDERLPRIAFFATRTIRAGEELTFDYNMQVDPVDMESTRMDSNFGLAGLPGSPKKRVRIECKCGTESCRKYLF
notes: made in house; host or cells: Rosetta E. coli (plasmid generated for this study)
Km [1, 5]: 11.78 ± 3.85 µM | kcat [1, 5]: 0.005 ± 0.000833 s⁻¹ | kcat/Km [1, 5]: 500 ± 167 M⁻¹ s⁻¹ | Km [1, 6]: 3.60 ± 1.72 µM | kcat [1, 6]: 0.0005 ± 0.000167 s⁻¹ | kcat/Km [1, 6]: 167 ± 50 M⁻¹ s⁻¹ | Km [1, 7]: 4.52 ± 0.49 µM | kcat [1, 7]: 0.00717 ± 0.000667 s⁻¹ | kcat/Km [1, 7]: 1670 ± 333 M⁻¹ s⁻¹

B2: EHMT1 catalytic domain (Homo sapiens) (protein)
chain: NSQVWSALQMSKALQDSAPDRPSPVERIVSRDIARGYERIPIPCVNAVDSEPCPSNYKYVSQNCVTSPMNIDRNITHLQYCVCIDDCSSSNCMCGQLSMRCWYDKDGRLLPEFNMAEPPLIFECNHACSCWRNCRNRVVQNGLRARLQLYRTRDMGWGVRSLQDIPPGTFVCEYVGELISDSEADVREEDSYLFDLDNKDGEVYCIDARFYGNVSRFINHHCEPNLVPVRVFMAHQDLRFPRIAFFSTRLIEAGEQLGFDYGERFWDIKGKLFSCRCGSPKCRHS
notes: EHMT1 = 982 to 1266; host or cells: Rosetta E. coli
Km [2, 5]: 6.84 ± 1.81 µM | kcat [2, 5]: 0.0335 ± 0.0025 s⁻¹ | kcat/Km [2, 5]: 5000 ± 833 M⁻¹ s⁻¹ | Km [2, 6]: 2.21 ± 0.65 µM | kcat [2, 6]: 0.0112 ± 0.000333 s⁻¹ | kcat/Km [2, 6]: 5330 ± 1330 M⁻¹ s⁻¹ | Km [2, 7]: 13.51 ± 4.95 µM | kcat [2, 7]: 0.211 ± 0.0108 s⁻¹ | kcat/Km [2, 7]: 16800 ± 4500 M⁻¹ s⁻¹

B3: EHMT2 catalytic domain (Homo sapiens) (protein)
chain: NRAIRTEKIICRDVARGYENVPIPCVNGVDGEPCPEDYKYISENCETSTMNIDRNITHLQHCTCVDDCSSSNCLCGQLSIRCWYDKDGRLLQEFNKIEPPLIFECNQACSCWRNCKNRVVQSGIKVRLQLYRTAKMGWGVRALQTIPQGTFICEYVGELISDAEADVREDDSYLFDLDNKDGEVYCIDARYYGNISRFINHLCDPNIIPVRVFMLHQDLRFPRIAFFSSRDIRTGEELGFDYGDRFWDIKSKYFTCQCGSEKCKHSAEAIALEQSRLARLD
notes: EHMT2 = 913 to 1193; made in house; host or cells: Rosetta E. coli (plasmid from the laboratory of Peter W. Lewis)
Km [3, 5]: 16.80 ± 2.69 µM | kcat [3, 5]: 0.0358 ± 0.00383 s⁻¹ | kcat/Km [3, 5]: 2170 ± 167 M⁻¹ s⁻¹ | Km [3, 6]: 6.10 ± 1.0 µM | kcat [3, 6]: 0.0175 ± 0.00117 s⁻¹ | kcat/Km [3, 6]: 2830 ± 500 M⁻¹ s⁻¹ | Km [3, 7]: 19.21 ± 2.00 µM | kcat [3, 7]: 0.127 ± 0.00183 s⁻¹ | kcat/Km [3, 7]: 6670 ± 667 M⁻¹ s⁻¹

B4: SUV39H2 catalytic domain (Homo sapiens) (protein)
chain: LEGPPSDFYYINEYKPAPGISLVNEATFGCSCTDCFFQKCCPAEAGVLLAYNKNQQIKIPPGTPIYECNSRCQCGPDCPNRIVQKGTQYSLCIFRTSNGRGWGVKTLVKIKRMSFVMEYVGEVITSEEAERRGQFYDNKGITYLFDLDYESDEFTVDAARYGNVSHFVNHSCDPNLQVFNVFIDNLDTRLPRIALFSTRTINAGEELTFDYQMKGSGDISSDSIDHSPAKKRVRTVCKCGAVTCRGYLN
notes: host or cells: Rosetta E. coli
Km [4, 5]: 9.85 ± 1.21 µM | kcat [4, 5]: 0.059 ± 0.00383 s⁻¹ | kcat/Km [4, 5]: 6000 ± 500 M⁻¹ s⁻¹ | Km [4, 6]: 8.18 ± 3.14 µM | kcat [4, 6]: 0.0703 ± 0.00583 s⁻¹ | kcat/Km [4, 6]: 9170 ± 2500 M⁻¹ s⁻¹ | Km [4, 7]: 4.70 ± 0.69 µM | kcat [4, 7]: 0.0668 ± 0.00567 s⁻¹ | kcat/Km [4, 7]: 14300 ± 1330 M⁻¹ s⁻¹
